# Data from publication PMC6154639 (Molecules : A Journal of Synthetic Chemistry and Natural …, 2017).
# B1: PaF4′OMT (Plagiochasma appendiculatum) (protein)
# chain: MAVSTNGKTSEGVSDVSRTKNITNGNGMDMSVSANVASIGSVSATPLSPEDKRDHVVAINFLLGWVQTWALKAVVTMRIPDIISKAPMDALTAREIISQIQCKNPSNAVPLLERLMRFMVCKGFFSESVNGENEIAYELNGVSKMYVTDHEMSVVEWVNVAFHRSGIPALTRMHEAITEDVCPWDQAHGMPIYAHNPKFPELGDFFHKAMIVHSNFLTKILAEEYEGFKDFKVLVDVGGSLGNNLALILRFHPHLRGINFDMPSVIAGAPSFPGVEHVGGNFYESVPSGDAIMLMAILHNNSDENCVKILRSVHAALPEDGKLIVAEYIMTNEADHNGERIRLLDMLMLVQFRGGEERTFEHHKTLYEAAGFRHYKLIKTSGPMDIIEVRK
# notes: pET32a fusion with N-terminal His6 tag kept (about 60 kDa on SDS-PAGE); E. coli BL21(DE3)
# Legend:
# PaF4′OMT = target: T1, PaF4′OMT (Plagiochasma appendiculatum, UniProt A0A1X9Y2Y6); assay: HPLC product quantification, Michaelis-Menten fit; type: biochemical; settings: substrate inhibition by luteolin; SAM as methyl donor; pH 7.5, 37 °C
# T1 construct: pET32a fusion with N-terminal His6 tag kept (about 60 kDa on SDS-PAGE); E. coli BL21(DE3)
# From the text: HPLC product quantification, Michaelis-Menten fit on PaF4′OMT
# purified protein = substrate: O=c1cc(-c2ccc(O)cc2)oc2cc(O)cc(O)c12; assay: purified protein; settings: SAM as methyl donor, no Mg2+ needed, pH 7.5, 37 °C
# [1] = substrate: O=c1cc(-c2ccc(O)c(O)c2)oc2cc(O)cc(O)c12; assay: HPLC product quantification, Michaelis-Menten fit; type: biochemical, Plagiochasma appendiculatum; settings: SAM as methyl donor, no Mg2+ needed, pH 7.5, 37 °C
molecule,measurement,setting,value
O=c1cc(-c2ccc(O)c(O)c2)oc2cc(O)cc(O)c12 [luteolin],Ki,PaF4′OMT,292.8 ± 69.03 µM
B1,Km,purified protein,31.0 ± 5.90 µM
same,Vmax,purified protein,0.163 µmol/min/mg
same,kcat,purified protein,0.117 s⁻¹
same,Km,[1],52.1 ± 10.54 µM
same,Vmax,[1],0.111 µmol/min/mg
same,kcat,[1],0.08 ± 0.009 s⁻¹
